Assay results published in article PMC3089470 (Nucleic Acids Research, 2011).

How the values were obtained:
Assay in all cases: pull-down
[1] = target: purified recombinant MRN complex (Mre11:Rad50:NBS1) (UniProt P49959;Q92878;O60934)
[2] = target: T1, NBS1A with the mutation I171V (UniProt O60934 1-221, I171V)
T1 sequence: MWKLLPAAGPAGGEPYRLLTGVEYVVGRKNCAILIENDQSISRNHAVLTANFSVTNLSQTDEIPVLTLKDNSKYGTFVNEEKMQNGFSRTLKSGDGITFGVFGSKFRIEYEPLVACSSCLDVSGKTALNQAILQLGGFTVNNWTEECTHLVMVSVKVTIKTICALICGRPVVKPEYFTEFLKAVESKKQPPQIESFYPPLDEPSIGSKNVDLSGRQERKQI

[3] = target: T2, GST-tagged NBS1 fragment NBS1A (1-221) (UniProt O60934 1-221)
T2 sequence: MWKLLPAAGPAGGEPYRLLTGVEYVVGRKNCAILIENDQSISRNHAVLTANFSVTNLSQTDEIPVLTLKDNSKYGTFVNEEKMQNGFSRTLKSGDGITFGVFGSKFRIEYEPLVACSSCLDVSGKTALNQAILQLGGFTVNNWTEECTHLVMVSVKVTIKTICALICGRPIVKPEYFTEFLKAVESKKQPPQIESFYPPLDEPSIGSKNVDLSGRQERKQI

[4] = target: T3, NBS1A with the mutation R215W (UniProt O60934 1-221, R215W)
T3 sequence: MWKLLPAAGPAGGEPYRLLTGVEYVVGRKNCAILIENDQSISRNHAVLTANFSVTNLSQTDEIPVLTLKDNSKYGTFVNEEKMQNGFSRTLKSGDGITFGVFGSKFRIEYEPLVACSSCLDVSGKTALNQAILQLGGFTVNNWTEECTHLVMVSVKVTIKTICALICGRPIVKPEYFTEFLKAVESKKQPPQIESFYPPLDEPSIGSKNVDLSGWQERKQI

Chain of purified recombinant MRN complex (Mre11:Rad50:NBS1) (P49959 whole entry, chain 1 of 2): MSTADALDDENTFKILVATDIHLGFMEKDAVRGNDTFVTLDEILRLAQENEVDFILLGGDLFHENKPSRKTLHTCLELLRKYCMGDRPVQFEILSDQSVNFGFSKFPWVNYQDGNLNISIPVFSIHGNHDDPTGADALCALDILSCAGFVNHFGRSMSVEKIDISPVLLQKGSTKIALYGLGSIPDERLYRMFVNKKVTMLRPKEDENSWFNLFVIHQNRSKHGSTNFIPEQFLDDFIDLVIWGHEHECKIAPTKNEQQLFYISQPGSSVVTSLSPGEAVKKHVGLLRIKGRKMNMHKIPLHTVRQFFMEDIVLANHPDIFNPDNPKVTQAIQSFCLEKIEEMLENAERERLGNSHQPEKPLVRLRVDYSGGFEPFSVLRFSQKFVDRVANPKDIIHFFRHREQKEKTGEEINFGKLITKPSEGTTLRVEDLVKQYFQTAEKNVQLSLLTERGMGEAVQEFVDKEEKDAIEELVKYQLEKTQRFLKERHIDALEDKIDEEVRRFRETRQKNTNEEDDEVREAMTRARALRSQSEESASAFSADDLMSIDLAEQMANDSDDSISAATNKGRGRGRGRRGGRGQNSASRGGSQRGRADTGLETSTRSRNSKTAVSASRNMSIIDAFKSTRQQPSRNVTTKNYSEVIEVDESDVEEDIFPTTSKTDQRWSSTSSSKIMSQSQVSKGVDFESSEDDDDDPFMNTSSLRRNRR
Chain of purified recombinant MRN complex (Mre11:Rad50:NBS1) (Q92878 whole entry, chain 2 of 2): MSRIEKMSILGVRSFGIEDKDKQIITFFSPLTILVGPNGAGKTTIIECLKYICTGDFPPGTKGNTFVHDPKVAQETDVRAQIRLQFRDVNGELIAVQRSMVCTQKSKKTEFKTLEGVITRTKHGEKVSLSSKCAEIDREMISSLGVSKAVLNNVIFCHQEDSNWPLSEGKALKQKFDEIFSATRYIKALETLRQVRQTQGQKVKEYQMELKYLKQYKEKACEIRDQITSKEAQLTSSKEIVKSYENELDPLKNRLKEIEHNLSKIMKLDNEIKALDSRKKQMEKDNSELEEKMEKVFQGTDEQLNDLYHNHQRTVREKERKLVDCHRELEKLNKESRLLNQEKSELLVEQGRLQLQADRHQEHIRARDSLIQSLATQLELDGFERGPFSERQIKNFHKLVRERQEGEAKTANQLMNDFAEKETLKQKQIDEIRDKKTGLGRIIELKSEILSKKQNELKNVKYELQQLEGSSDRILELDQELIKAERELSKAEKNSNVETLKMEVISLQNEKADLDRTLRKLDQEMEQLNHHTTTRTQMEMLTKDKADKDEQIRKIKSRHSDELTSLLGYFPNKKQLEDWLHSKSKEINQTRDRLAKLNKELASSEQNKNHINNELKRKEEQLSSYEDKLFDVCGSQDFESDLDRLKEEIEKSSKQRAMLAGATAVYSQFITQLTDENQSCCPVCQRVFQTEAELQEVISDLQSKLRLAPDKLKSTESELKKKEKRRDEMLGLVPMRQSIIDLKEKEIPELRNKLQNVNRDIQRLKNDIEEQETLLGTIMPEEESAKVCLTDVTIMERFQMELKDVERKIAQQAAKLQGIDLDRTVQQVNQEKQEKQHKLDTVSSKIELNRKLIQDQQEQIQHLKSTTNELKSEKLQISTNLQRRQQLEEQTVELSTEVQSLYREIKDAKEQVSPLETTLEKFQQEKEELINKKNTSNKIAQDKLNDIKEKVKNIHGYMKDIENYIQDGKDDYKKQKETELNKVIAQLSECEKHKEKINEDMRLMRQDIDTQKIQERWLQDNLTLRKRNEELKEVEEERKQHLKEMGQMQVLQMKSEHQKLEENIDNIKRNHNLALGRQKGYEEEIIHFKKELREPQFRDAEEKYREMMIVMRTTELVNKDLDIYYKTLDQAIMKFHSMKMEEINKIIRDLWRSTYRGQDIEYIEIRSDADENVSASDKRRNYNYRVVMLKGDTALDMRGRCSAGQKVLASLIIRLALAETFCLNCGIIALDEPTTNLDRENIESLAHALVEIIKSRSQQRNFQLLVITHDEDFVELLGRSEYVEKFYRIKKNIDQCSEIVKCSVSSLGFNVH

- binding result [1]: binds
- binding result [2]: binds
- binding result [3]: binds
- binding result [4]: binds
B1: hSSB1, full-length recombinant, His-tagged (natural protein)
chain: MTTETFVKDIKPGLKNLNLIFIVLETGRVTKTKDGHEVRTCKVADKTGSINISVWDDVGNLIQPGDIIRLTKGYASVFKGCLTLYTGRGGDLQKIGEFCMVYSEVPNFSEPNPEYSTQQAPNKAVQNDSNPSASQPTTGPSAASPASENQNGNGLSAPPGPGGGPHPPHTPSHPPSTRITRSQPNHTPAGPPGPSSNPVSNGKETRRSSKR
